Laboratory results published in the nanobody polyreactivity screen of Harvey et al. (2022).

Experiment: yeast display, Sf9 membrane polyspecificity reagent, FACS + sequencing; frameworks hold sequencing errors
In short: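 A synthetic nanobody library was expressed on Saccharomyces cerevisiae BJ5465 by galactose induction for 36–48 hours. The library was stained for 1 hour at 4 °C with 10% biotinylated, detergent-solubilized Sf9 membrane reagent and enriched with streptavidin microbeads before FACS. Low and high (top ~1%) gates were set on anti-HA fluorescence for expression and streptavidin fluorescence for reagent binding, and each polyreactivity label reflects the gate of origin.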

Row | Sequence | polyreactivity (PSR sort gate)
1 | QVQLVESGGGLVQAGGSLRLSCAASGFSFDFYTMGWYRQAPGKERELVAAITWSGDSTYYADSVKGRFTISRDNAKNTVDLQMNSLKPEDTAVYYCAVARVSQDGYRRRVTTWHDDYWGQGTQVTVSS | low polyreactivity
2 | QVQLVESGGGLVQAGGSLRLSCAASGFSFDTYAMGWYRQAPGKERELVAVISRGGSTYYADSVKGRFTISRDNAKNTVYLQMNSLKPEDTAVYYCAARSHGSYAYQYGYWGQGTQVTVSS | high polyreactivity
3 | QVQLVESGGGLVQAGGSLRLSCAASGFSFGVYAMGWSRQAPGKERELVAAISTTVGSTYYADSVKGRFTISRDNAKNTVYLQMNSLKPEDTAVYYCAAEYTGYINYYIYEYWGQGTQVTVSS | low polyreactivity
4 | QVQLVESGGGLVQAGGSLRLSCAASGFSFIDNALGWYPQAPGKERELVAAITWSGGSTYYADSVKGRFTISRDNAKNTVYLQMNSLKPEDTAVYYCAATLWFGVAGDSRYDPPEYDYWGQGTQVTVSS | low polyreactivity
5 | QVQLVESGGGLVQAGGSLRLSCAASGFSFRYYAMGWYRQAPGKERELVAAISSSGTRTYYADSVKGRFTISRDNATTTVYLQMNSLKPEDTAVYYCNAGSPTSTVDYWGQGTQVTVSS | high polyreactivity
6 | QVQLVESGGGLVQAGGSLRLSCAASGFSFSSYAMGWYRQAPGTERELVATISVNGGSTNYADSVKGRFTISRDNAKNTVYLQMNSLIPEDTAVYYCNAKSYTRRSYYTPTVPGDYWGQGTQVTVSS | low polyreactivity
7 | QVQLVESGGGLVQAGGSLRLSCAASGFSFSYYAMGWYRQAPGKERELVAAINYSGTSTYYADSVKGRFTISRDNAKNTVYLQMKSLKPEDTAVYYCAADLPYYPYLYDYWGQGTQVTVSS | low polyreactivity
8 | QVQLVESGGGLVQAGGSLRLSCAASGFSFTRYAMGWYRQAPGKERELVAAIYIGGSTYYADSVKGRFTISRDNAKNTVYFQMNSQKPEDTAVYYCAVDYRHSSSWNAGPWEMYYWGQGTKVTVSS | low polyreactivity
9 | QVQLVESGGGLVQAGGSLRLSCAASGFSFYRYAMGWYRQAPAKERELVARTYYADSVKGRFTISRDNAKNTVYLQMNSLKPEDTAVYYCNKDLELEYRYEYWGQGTQVTVSS | low polyreactivity
10 | QVQLVESGGGLVQAGGSLRLSCAASGFSFYSYTMGWYRQAPGSVRELVAAISRSGGRTSYADSVKGRFTNSRDNAKNTVYLQMNSLKPDDTAVYYRNAVRLLQTFAEYEYWGQGTQVTVSS | high polyreactivity
11 | QVQLVESGGGLVQAGGSLRLSCAASGFSLRNNAMGWYRPAPGKERELVAGITSGGRTNYADSVKGRFTISRDNAKNTVYLQMNSLKPEHTAVYYCAKRVWPRDQYGKRNPRMDYWGQGTLVTVSS | high polyreactivity
12 | QVQLVESGGGLVQAGGSLRLSCAASGFSYRYYAMGWYRQAPGKERELVAAISSRGGSTYYADSVKGRFTISRDNATNTVYLQMNSLKPEDTAVYYCAADHGDPGGYDYWGQGTQVTVSS | high polyreactivity
13 | QVQLVESGGGLVQAGGSLRLSCAASGFTCARYALGWYRQAPGQERELVASITWNGGRTYYAASVKGRFTISRDNAKNTVYLQMNSLKPEDTAVYYCAKDTRYTRYEYWGQGTQVTVSS | high polyreactivity
14 | QVQLVESGGGLVQAGGSLRLSCAASGFTCGYYAMGWYREAPGKEREFVATISYGTGSTYYADSVKGRFTISRDNAKNTVSFQMNSLKPEDTAVYYCNADTWPGEYNGYFSGAYDYWGQGTQVTVSS | high polyreactivity
15 | QVQLVESGGGLVQAGGSLRLSCAASGFTFAANTMGWYRQAPGKERELVADISGRGDRTSYADSVKGRFTISRDNAKNTVYLQMNSLKPEDTSVYYCAVDIYYYSNVHYYYWGQGTQVTVSS | low polyreactivity
16 | QVQLVESGGGLVQAGGSLRLSCAASGFTFADYAMGWYRQAPGKERELVAAINRSGGRTYYADSVKGRFTISRDNAKNTVYLQMNSLKPEDTAVYYCAAYGITYHNYDYWGQGTQVTVSS | high polyreactivity
17 | QVQLVESGGGLVQAGGSLRLSCAASGFTFAGNARGWDRQSPGKERELVAAITSGGSTYYADSVKGRFTMSRDKAKNTVYLQMNSLKPEDTAVYYCAALVFRGRSFTHDYWGQGTQVTVSS | high polyreactivity
18 | QVQLVESGGGLVQAGGSLRLSCAASGFTFAGYAMGWNRQAPGKERELVAASNRGGSTYYADSVKGRFTSSRDNAKHTVYLQRNSLKPEDTAVYYCAKAQRFYGGRMGYWGQGTQVTVSS | low polyreactivity
19 | QVQLVESGGGLVQAGGSLRLSCAASGFTFAGYAMGWYRQAPGKERELVAAISWRGGSTYYADSVKGRFTISRDNAKNTVYLQMNSLKPEDTAVYYCAAASRKRTSREPLDYWGQGTQVTVSS | high polyreactivity
20 | QVQLVESGGGLVQAGGSLRLSCAASGFTFAGYAMGWYRQAPGKERELVAGIRSSGARTNYADSVKGRFTISRDNAKNTVYLQMNSLKPEDTAVYYCNAVRTLYIWWPGYYYWGQGTQVTVSS | low polyreactivity
21 | QVQLVESGGGLVQAGGSLRLSCAASGFTFAGYAMGWYRQAPGKERELVAGIRSSGARTYYADTVKGRFTISRDNAKNTVYFQLKSLKPDDTAVYYCAKTDGFYGGYGYWGQGTQVTVSS | low polyreactivity
22 | QVQLVESGGGLVQAGGSLRLSCAASGFTFAHNAMGWYRQAPGKERELLAAISSRGGRTFYADSVKGRFTISRDNAKNTVYLQMNSLKPEDTAVYYCNRVRSVTPSPRYYYWGQGTQVTVSS | high polyreactivity

Row | Sequence | polyreactivity (PSR sort gate)
23 | QVQLVESGGGLVQAGGSLRLSCAASGFTFALNAMGWYRQAPGKERELVAAISFSGTRTYYADSVKGRFTISRDNAKNTVYLQMNSLKPEDTAVYYCAARVWVSDSYYPYYYWGQGTQVTVSS | high polyreactivity
24 | QVQLVESGGGLVQAGGSLRLSCAASGFTFALYTMGSYRQAPGKERELVAAIRSTGSTYADSVKGRFTISRDNAKNTVYLQMNSLKPEDTAVYYCAAQYWRRKKYYYWGQGTQVTVSS | high polyreactivity
25 | QVQLVESGGGLVQAGGSLRLSCAASGFTFARNAMGWYRQAPGKERELVAAINRSGGSTYYADSVKGRFTISRDNAKNTVYLQMNRLKPEDTAVYYCNKPRLAQQGYDYWGQGNQVTVSS | high polyreactivity
26 | QVQLVESGGGLVQAGGSLRLSCAASGFTFARNAMGWYRQAPGKERELVAVISRGGSTNYADSVKGRFTISRDNAKNTVSLQLHSLKPEDTAVYYCATRSSRRSYYLGEFNYWGQGTQVTVSS | high polyreactivity
27 | QVQLVESGGGLVQAGGSLRLSCAASGFTFARYAMGWYRQAPGKERELVAAITYSGGRTYYADSVKGRFTISRDNAKNTVYLQMNSLKPEDTAVYYCAARLSKRSGYYYWGQGTQVTVSS | high polyreactivity
28 | QVQLVESGGGLVQAGGSLRLSCAASGFTFARYAMGWYRQAPGKERELVASISGSGGSTYYADSVKGRFTISRDNAKNTVYLQMNSLKPEDTAVYYCAADTWYGFDWGQGTQVTVSS | high polyreactivity
29 | QVQLVESGGGLVQAGGSLRLSCAASGFTFARYTMGWYRQAPGKERELVAAISSRGSSTYYADSVKGRFTISRDNAKNTVFLQMNSLKPEDTAVYYCAASPYDTQTLDYDYWGQGTQVTVSS | high polyreactivity
30 | QVQLVESGGGLVQAGGSLRLSCAASGFTFATYTIGWYRPAPGKERELVAAISWSGGSTYYADSVKGRFTISRDNAKNTVYLQMNSLKPEDTAFYYCAAQRPSALRLYSSQRTIFGYWGQGTQVTVSS | high polyreactivity
31 | QVQLVESGGGLVQAGGSLRLSCAASGFTFAVSAMGWYRQAPGKERELVAAISRSGTRTYYADSVKGRFTISRDNAKNTVYLQMNSLKPEDTAVYYCAADKYRHGYDYWGQGTQVTVSS | low polyreactivity
32 | QVQLVESGGGLVQAGGSLRLSCAASGFTFAVYAMGWDSQAPGKERELVAAISRSGTRTYYADSVKGRFTSSRDNAKNTVSLQMNSLKPEDTAVYYCAADKYRHGYDYWGQGTQVTVSS | low polyreactivity
33 | QVQLVESGGGLVQAGGSLRLSCAASGFTFAVYAMGWYRQAPGKERELVAAISRSGTRTYYADSVKGRFTISRDNAKNTVYLQMNSLKPEDTAVYYCAADKYRHGYDYWGQGTQVTVSS | low polyreactivity
34 | QVQLVESGGGLVQAGGSLRLSCAASGFTFAVYVMGWYRPGRGKERELVAAISRSGGSTYYADSVKGRFTISRDNANNTDYLQMNSLNPEDTAVYYCAASPKRVLRESGDYCGQGTQVTVSS | high polyreactivity
35 | QVQLVESGGGLVQAGGSLRLSCAASGFTFAWNAKGWYRQAPGKERELVAAINRSGGSTKYADSVKGRFTISRDNAKNTVYLQMNSLKPEDTAVYFCNKYQLVRTYGSYSYYYWVQGTQVTVSS | high polyreactivity
36 | QVQLVESGGGLVQAGGSLRLSCAASGFTFAYNAMGWYRQAPGKERELVAAITVSGGRTYYADSVKGRFTISRDNAKNTVYLQMNSLKPEDTAVYYCAATVRVRTNSWMDYWGQGTQVTVSS | low polyreactivity
37 | QVQLVESGGGLVQAGGSLRLSCAASGFTFAYNAMGWYRQAPGKETELVAAINSGGGRTYYADSVKGRFTISRDNAKNTVYLQMNSLKPEATAVYYCNAYPYKLDYDYWGQGTQVTVSS | high polyreactivity
38 | QVQLVESGGGLVQAGGSLRLSCAASGFTFAYYAMGWYRQAPGKEREFVAAINKGGGSTNYADSVKGRFTISRDNAKNTVYLQMNSLKPEDTAVYYCNADYFVWYIGRVFSRYGYWGQGTQVTVSS | low polyreactivity
39 | QVQLVESGGGLVQAGGSLRLSCAASGFTFAYYAMGWYRQAPGKERELVAAISERGGSTYYADSVKGRFTISRDNAKNTVDLQMNSLKPEDTAVYYCARTFWDSPWYQSSYYSWGQGTQVTVSS | low polyreactivity
40 | QVQLVESGGGLVQAGGSLRLSCAASGFTFAYYAMGWYRQAPGKERELVAAITSRGGSTYYADSVKGRFTISRDNAKNTVYLQMNSLKPEDTAVYYCATKRVLTGYDSWGQGTQVTVSS | high polyreactivity
41 | QVQLVESGGGLVQAGGSLRLSCAASGFTFAYYTMGWYRQAPGKERELVAAINWSGGSTYYADSVKGRFTISRDYAKNTVYLQMNSLKPEDTAVYYCAAKSYWWATYDYWGQGTQVTVSS | high polyreactivity
42 | QVQLVESGGGLVQAGGSLRLSCAASGFTFAYYTMGWYRQAPGKERELVATISTSGGSTYYADSVKGRFTISRDNAKNTVYLQMNSLKPEDTAVYYCNRDLGRYYHWYDYWGQGTQVTVSS | low polyreactivity
43 | QVQLVESGGGLVQAGGSLRLSCAASGFTFAYYVMGWYRQAPGKERELVAAITRSGDITSYADSVKGRFTISRDNAKNTVYLQMNSLKPEDTAVYYCNARLGYQSRRYNYWGQGTQVTVSS | high polyreactivity
